# Assay: soluble on expression in E. coli; label from the status in PepcDB or PDB records
row,Sequence,soluble on expression in E. coli
1,MSLQNFDFNEALKGIQAGKPITGSDGVLAPLIKQLTEAALNAEIQSHLEQSSTSNRRNGYSKKTVKSAAGSFELETPRDRNGEYEPVLVKKHQTKLTAEIDSRILSLFSHGMSYRDIRHHIAEIYQLEVSEATISSITDELIPQLKAWQSRPLDSVYPFVWLDAIHYKVKDEGRYVSKAIYTLLALNTEGKKELIGLYCSESEGANYWLSVLTDLHNRGVQDILIACVDGLKGFPEAINAIFPNTEVQLCVIHQIRNSIRYVASRDQKAFMRDLKPVYKAVNKESAELALDDLEAVWGDQYPAVIKSWRDKWHLLSAYFKYPEAVRKPIYTTNAVEAVHRQFRKLTKTKGAFPNETSLLKLLYVGMLNASAKWTMPIRNWGQTMMQLSIYFPGRLDSVMREGHHHHHH,soluble
2,MKRYTPDFPEMMRLCEMNFSQLRRLLPRNDAPGETVSYQVANAQYRLTIVESTRYTTLVTIEQTAPAISYWSLPSMTVRLYHDAMVAEVCSSQQIFRFKARYDYPNKKLHQRDEKHQINQFLADWLRYCLAHGAMAIPVY,not soluble
3,MTEPIFMVGARGCGMTTVGRELARALGYEFVDTDIFMQHTSGMTVADVVAAEGWPGFRRRESEALQAVATPNRVVATGGGMVLLEQNRQFMRAHGTVVYLFAPAEELALRLQASLQAHQRPTLTGRPIAEEMEAVLREREALYQDVAHYVVDATQPPAAIVCELMQTMRLPAA,soluble
4,MKVERVERVEDIDFEGLLKEGYTCFFFDFDNTLVPWKESKLEESKRRLLIELAKKARVVVVSNGKPRKVDLPVMFIWRAGKPFSLKLWRFLKKEKIDPKRCVMIGDQIFTDVLTGKIFGFRVIKVEPISAKEFFGTKILRFFEKILEGKVR,not soluble
5,MSNEISDRKVSDTLKDKKPMSLLLLGTDTGEFGRSYKGRTDTIMMMVINPKTNKTTVVSLPRDMKVNLPDYPDYSPAKINAAYTYGGVDETVKTIKKYFNVPTDAYVMVNMGGLEKAIDQVGGVTVKSPLTFDYEGYHFTKGVTYHMNGKKALAFSRMRYDDPRGDYGRQERQRLVIMALLKSSISYKTVVNQTFLNSISKQTMTNLTFDNMVALAQNYRHATDNVTTDHAQGQGDWENGVAYESVSQAECQRISNKLRAALGLKPETLKTGELEHHHHHH,soluble
6,MTDFTTDIAQALVRKEDLKEVFRTHLENAVNTLLATELTAFLDYEKYDRGGFGSGNSRNGTYPRTLHTEFGDLHLSIPRDRNGEFHQQTISPYKRSNDTLESFVIHMYQKGVTTGEITDLLERMYGHHYTPQTISNMTKTMEKQVEAFKARTLAKRYVCVYLDATFIAIKRDTVSKEAVYLAIGIQEDGTKEVLAYTIAPTESALVWKEVLEDLQNRGVEDVLLFVSDGLKGIVDSIQSLFPSSSYQLCCVHLSRNLAHKVRVSDRAEVCGDFKRVYRATSKQEGQKALDDFVTKWKKVYPRATKSLEENPFILTFYDFPQAIWRSIYSTNLIESFNKQLKKYSKRKEQFPNEPSIERFLVSQFEPYNQKFSTRCHLGFDLARAELVSMFERRK,soluble
7,MVITLSRLYVHPVKSMRGLQLSHAQVSRSGLAFDRVFMITEPDGMFITARQYPKMVMFTPALMADGLYLTAPDGESASIRFNDFLANPAPTEVWGNHFTALIAPEAINSWLSGYFQRDVQLRWVGTELTRRVKPLPEVPLSFADGFPYLLINEASFKDLQQRCPASIKLEQFRPNLVITGTTAFAEDCWQVIRIGDITFDLVKPCSRCVLTTVSVERGQKHPAGEPLRTLQTFRTAENGDVDFGQNMVARNSGIIRVGDEVEVLITKPPRPYGAGAVVESLSAPQDQSKTVSIEYNGIRFNGNNQQILLEQLEQQNIRIPYSCRAGICGSCRVTLLTGDVAALKKSAVGNDGTILCCSCIPKGDISLSGK,not soluble
8,MSERLEVSIEGEDDFPFDEDNIQELDHFDIGEDEDPEEVAQEDAGVWQERVPLTRQKRKQVLRKPGRKRTGEIIHIPKRQPPRAVRVKSYQQYDAFDELVEQDLDDSDPEVMDDDGEPSTSKTWRIFVRKDGSGMHFDWPIFMDSAVSLKDVVNFISTDASEIPKSLICTSIPQEFTNTGTFIIHLEEGLLKEEICNDGLGTWNSAQMFVRKYVLGVGRARPLMTQKNDHNLKHIFISGFDKDEHMIPYVVICYEWMGQPHPLTVYEDQTEKQAFEQMTWKKCSNPEDQVPILARHGCDYNSAVAILLSSEKCTNYGKSVPQFVQECISFVIDINECGGDRALFLDGNEWQRPSGSHRFFRILYPNQDHGDFDTWNIERASSNFNVTNSDIQIICRRYNGQKYSQSFGFVRKIYLLKILPLCPPEVAEQLHNRDLAVISYSYRNAPHPTFIEQPDRQKLPDGQRVGEEVELVSGDVMFDDDISPEMREMVENMERKKKINSERLMELLQRIHRIDQICKKEAWLESSAEVQQLTQIAQLLHYCQ,not soluble
9,MAKYTREDIEKLVKEENVKYIRLQFTDILGTIKNVEIPVSQLGKALDNKVMFDGSSIEGFVRIEESDMYLYPDLNTFVIFPWTAEKGKVARFICDIYNPDGTPFEGDPRNNLKRILKEMEDLGFSDFNLGPEPEFFLFKLDEKGEPTLELNDKGGYFDLAPTDLGENCRRDIVLELEEMGFEIEASHHEVAPGQHEIDFKYAGAVRSCDDIQTFKLVVKTIARKHGLHATFMPKPLFGVNGSGMHCNLSLFKNGVNAFFDENADLQLSETAKHFIAGIVKHATSFTAVTNPTVNSYKRLVPGYEAPCYVAWSAQNRSPLIRIPASRGISTRVEVRSVDPAANPYLALSVLLAAGLDGIKNKLEAPAPIDRNIYVMSKEERMENGIVDLPATLAEALEEFKSNEVMVKALGEHLFEHFIEAKEIEWDMFRTQVHPWEREQYMSQY,not soluble
10,MDSIYRDAGYDVLKVSAKTGEGIDELVDYLEGFICILAGPSGVGKSSILSRLTGEELRTQEVSEKTERGRHTTTGVRLIPFGKGSFVGDTPGFSKVEATMFVKPREVRNYFREFLRYQCKYPDCTHTNEPGCAVKEAVKNGEISCERYKSYLKIIKVYLEEIKELCREDLEHHHHHH,not soluble
11,MAIKSVVVGKGTLTLAMKDAHTQALDFSAQVTSAKFQPDSSTGDSITVLSGETIPGKKSFGGHLEIDFLQDFSTNGIVDFSYKNAGKEADFVYTPNTEAKAKLQGTVIIAPLEVGDDVEAIAKSAAKWVVPSLPTFTPGG,not soluble
12,MRLDRYLSNSGVGTRKEVKKLIKQGRVTVNGRVVLDPGHPVLENDAVALDGEVVRFHKKVYILFYKPSGYVTSTKDPHSETIMEFLPPLKGIFPVGRLDKDAEGLLIITNDGDFAHRVISPKWSVEKEYIVKVEGEVTEDKIEKLKNGVTLRDGFFAKAKRVEKLSNDTLKIVITEGKYHQIKRMTAAVGLKTVHLKRTRIGGLVLPDDMKPGEYRFLSEEEVKKVFEREDQKEDTPRS,not soluble
13,MRAPGVRAADGAGRVVLYLHGGAFVMCGPNSHSRIVNALSGFAESPVLIVDYRLIPKHSLGMALDDCHDAYQWLRARGYRPEQIVLAGDSAGGYLALALAQRLQCDDEKPAAIVAISPLLQLAKGPKQDHPNIGTDAMFPARAFDALAAWVRAAAAKNMVDGRPEDLYEPLDHIESSLPPTLIHVSGSEVLLHDAQLGAGKLAAAGVCAEVRVWPGQAHLFQLATPLVPEATRSLRQIGQFIRDATADSSLSPVHRSRYVAGSPRAASRGAFGQSPI,soluble
14,MPRTHGYAPIGKRCHGKCNWHARGRINVIGALIGKCLLTVGLFKNNIDADTFLGWTIHDLLPKLPPASIVVMDNATFRKRQDIQNVITRGGHTLEYLPAYSPDLNPIEHKWAQTKAVRKQQNQTVEQLFKIESFYVT,not soluble
15,SMTYIPPGESLRDLIEQSQSSGSGSGLPLLVQRTIAKQIQMVKQIGKGRYGEVWMGKWRGEKVAVKVFFTTEEASWFRETEIYQTVLMRHENILGFIAADIKGTGSWTQLYLITDYHENGSLYDYLKSTTLDAKSMLKLAYSSVSGLCHLHTEIFSTQGKPAIAHRDLKSKNILVKKNGTCCIADLGLAVKFISDTNEVDIPPNTRVGTKRYMPPEVLDESLNRNHFQSYIMADMYSFGLILWEVARRCVSGGIVEEYQLPYHDLVPSDPSYEDMREIVCIKKLRPSFPNRWSSDECLRQMGKLMTECWAHNPASRLTALRVKKTLAKMSESQDIKL,soluble
16,MTRRPDRKDVATVDELHASATKLVGLDDFGTDDDNYREALGVLLDAYQGEAGLTVLGSKMNRFFLRGALVARLLSQSAWKQYPEHVDVAIKRPIFVTGLVRTGTTALHRLLGADPAHQGLHMWLAEYPQPRPPRETWESNPLYRQLDADFTQHHAENPGYTGLHFMAAYELEECWQLLRQSLHSVSYEALAHVPSYADWLSRQDWTPSYCRHRRNLQLIGLNDAEKRWVLKNPSHLFALDALMATYPDALVVQTHRPVETIMASMCSLAQHTTEGWSTKFVGAQIGADAMDTWSRGLERFNAARAKYDSAQFYDVDYHDLIADPLGTVADIYRHFGLTLSDEARQAMTTVHAESQSGARAPKHSYSLADYGLTVEMVKERFAGL,soluble
17,MDPLSRDENYIQRLTPEMWREIKAASPEVTAEMLDDLKHGNTYYTGVETDKGVLIFSRDIIGEGQFSDYMYKYIENDFFASEFVLKSLAVHELRGWPSLMEGKLNRCHNRFGWWGDGETIRRAFQDRSVLKNVTDSETYDFTPPPHGRTITG,not soluble
18,MRIHSAGHSLPAPGPSVETTEKAVQSSSAQNPASCSSQTERPEAGSTQVRPNYPYSSVKTRLPPVSSTGQAISDTPSSLPGYLLLRRLDRRPLDEDSIKALVPADEALREARRALPFGRGNIDVDAQRTHLQSGARAVAAKRLRKDAERAGHEPMPENDEMNWHVLVAMSGQVFGAGNCGEHARIASFAYGALAQESGRSPREKIHLAEQPGKDHVWAETDNSSAGSSPIVMDPWSNGAAILAEDSRFAKDRSAVERTYSFTLAMAAEAGKVARETAENVLTHTTSRLQKRLADQLPNVSPLEGGRYQPEKSVLDEAFARRVSDKLNSDDPRRALQMEIEAVGVAMSLGAEGVKTVARQAPKVVRQARSVASSKGMPPRR,not soluble
19,MPTPCYISITGQTQGNITAGAFTADSVGNIYVQGHEDEMLVQEFLHNVTVPTDPQSGQPAGQRAHKPFIFTVALNKAVPLMYNALASGEMLPTTELHWWRTSVEGKQEHYFTTRLTDSTIVDMKLHMPHCQDPAKREFTQLLEVSLAYRKIEWEHVKSGTSGADDWRAPLEA,soluble
20,MMSVEHSANSQKKVIVGMSGGVDSSVSAYLLKQQGYQVEGLFMKNWEEDDNEEYCTAAEDLADAQAVCDKLGIPLHTINFAAEYWDNVFEYFLAEYKAGRTPNPDILCNKEIKFKAFLEFADEVLDADYIAMGHYVRRTFPQNGEKPQMLRGLDGNKDQSYFLYTLSHEQVARTLFPVGELEKPEVRRIAEEQGLITAKKKDSTGICFIGERKFTDFLSRYLPAQPGKIETPEGKVIGEHQGLMYHTLGQRKGLHIGGMKESSEQPWYVADKDLKRNVLIAVQGADHPLLKSHGLVAAQLHWVDRTPITEPVRCSVKTRYRQSDIACTIIPLSDDRIKVMFDEPQVAVTPGQSAVFYQGEICLGGGIIEERI,not soluble
21,MKMARMSKKKKLEMLDVARDEERNRIIRLLTEDDNFTPSLEPLIDNYLDAFIIYKTMFEEWKADGFAPTKTHKNKAGAVNEMKHPLAQQVETWNDKKNKMLEALGMTNKGKSVQKTPKNAENIQTDEPKDELAAHRNKWRKSK,not soluble

# From the DeepSol protein solubility set
